Values joined by “and” are separate entries in the source; they are usually repeats but may differ in a detail not shown here. Identical values can stand only once.
B1: wild-type glucosamine-6-phosphate deaminase of Giardia lamblia (GlmNagB) (enzyme, UniProt O97439 1-266, looked up)
chain: MPSIHVSKCADPAIKLAHRIAEVVRSKPNCVLGLATGSTPIPVYQELARLHREEGLDFSQVRTFNLDEYAGLPPTHDQTYRFFMEEHLFSKVNIKPENVHFLNGMASDYEKECERYEQELKAIGPCDVWLLGIGHNGHIAFNEPGSPRDSRTRVVCLTQSTIDANARFFGNDKSKVPTKALSVGIATIMESREILLLATGESKREAVTKSVKGKCETHCPASFLHEHPHCRFYVDMDAGKVVDNTCCQATNQASCCGSTSCHAAKA
notes: glucosamine-6-phosphate deaminase of Giardia lamblia, GPI1 (GN6PI) gene cloned from strain MR4; primers run from the start ATG to the stop codon; calculated mass 29.4 kDa; No tag (pETTopo-GlmNagB); In solution a mixture of monomer, homodimer and homotetramer; also called wild-type GlmNagB; native GlmNagB; source: E. coli BL21(DE3) pLysS, purified (streptomycin sulfate, ammonium sulfate, PEG, ion …)
B2: G. lamblia GlcN6P deaminase with N-terminal His6 fusion (GlmNagB-HisN) (enzyme, Giardia lamblia, UniProt O97439 1-266, looked up)
chain: MPSIHVSKCADPAIKLAHRIAEVVRSKPNCVLGLATGSTPIPVYQELARLHREEGLDFSQVRTFNLDEYAGLPPTHDQTYRFFMEEHLFSKVNIKPENVHFLNGMASDYEKECERYEQELKAIGPCDVWLLGIGHNGHIAFNEPGSPRDSRTRVVCLTQSTIDANARFFGNDKSKVPTKALSVGIATIMESREILLLATGESKREAVTKSVKGKCETHCPASFLHEHPHCRFYVDMDAGKVVDNTCCQATNQASCCGSTSCHAAKA
notes: glucosamine-6-phosphate deaminase of Giardia lamblia, GPI1 (GN6PI) gene cloned from strain MR4; NdeI/BamHI insert from the start ATG to the stop codon in pET15b; calculated mass 31.7 kDa with the tag; source: E. coli BL21(DE3) pLysS, purified (Ni2+-IDA agarose); not shown: His6, N-terminal, kept
B3: G. lamblia GlcN6P deaminase with C-terminal His6 fusion (GlmNagB-HisC) (enzyme, Giardia lamblia, UniProt O97439 1-266, looked up)
chain: MPSIHVSKCADPAIKLAHRIAEVVRSKPNCVLGLATGSTPIPVYQELARLHREEGLDFSQVRTFNLDEYAGLPPTHDQTYRFFMEEHLFSKVNIKPENVHFLNGMASDYEKECERYEQELKAIGPCDVWLLGIGHNGHIAFNEPGSPRDSRTRVVCLTQSTIDANARFFGNDKSKVPTKALSVGIATIMESREILLLATGESKREAVTKSVKGKCETHCPASFLHEHPHCRFYVDMDAGKVVDNTCCQATNQASCCGSTSCHAAKA
notes: glucosamine-6-phosphate deaminase of Giardia lamblia, GPI1 (GN6PI) gene cloned from strain MR4; forward primer from the start ATG, reverse primer adds six His codons after the last codon and then the stop; calculated mass 30.2 kDa with the tag; pETTopo-GlmNagB-HisC; hexaHis stands directly at the C-terminus; source: E. coli BL21(DE3) pLysS, purified (Ni2+-IDA agarose); not shown: His6, …

Molecular target: the molecule itself
Assay: SEC; Superdex 200HR 10/300 GL; 0.5 ml applied, 0.5 ml/min; 50 mM potassium phosphate pH 7.0, 0.15 M NaCl; masses from a plot of log molecular mass versus Kav; fresh preparations and preparations stored for several hours at 4 °C or of higher protein concentration

Stoichiometry N, 4 and 2:
B1
B2
B3

Source: publication PMC4281351, “Heterogeneity of quaternary structure of glucosamine-6-phosphate deaminase from Giardia lamblia” (Parasitology Research, 2014)
